Test results reported in the array DNA melting data of Ke et al..

Assay: melting temperature; melt of duplexes
Details: sodium 0.0675 M; strand 1 µM

Substance | Tm
CGACGTGCTTCATGTGCTG+CAGCACATTAGGCACGTCG ((((((((.(.((((((((+)))))))).).)))))))) | 50 °C
CGACGTGCTTCATGTGCTG+CAGCACATTATGCACGTCG ((((((((.(.((((((((+)))))))).).)))))))) | 50.1 °C
CGACGTGCTTGATGTGCTG+CAGCACATAACGCACGTCG ((((((((.(.((((((((+)))))))).).)))))))) | 50.8 °C
CGACGTGCTTGATGTGCTG+CAGCACATAATGCACGTCG ((((((((.(.((((((((+)))))))).).)))))))) | 52.1 °C
CGACGTGCTTGATGTGCTG+CAGCACATAGAGCACGTCG (((((((((..((((((((+))))))))..))))))))) | 54.2 °C
CGACGTGCTTGATGTGCTG+CAGCACATATAGCACGTCG (((((((((..((((((((+))))))))..))))))))) | 54 °C
CGACGTGCTTGATGTGCTG+CAGCACATCAAGCACGTCG (((((((((((((((((((+))))))))))))))))))) | 64.9 °C
CGACGTGCTTGATGTGCTG+CAGCACATCATGCACGTCG ((((((((.((((((((((+)))))))))).)))))))) | 59.5 °C
CGACGTGCTTGATGTGCTG+CAGCACATCCAGCACGTCG (((((((((.(((((((((+))))))))).))))))))) | 57.1 °C
CGACGTGCTTGATGTGCTG+CAGCACATCCGGCACGTCG ((((((((..(((((((((+)))))))))..)))))))) | 54.6 °C
CGACGTGCTTGATGTGCTG+CAGCACATCCTGCACGTCG ((((((((..(((((((((+)))))))))..)))))))) | 54.5 °C
CGACGTGCTTGATGTGCTG+CAGCACATCGAGCACGTCG (((((((((.(((((((((+))))))))).))))))))) | 60.6 °C
CGACGTGCTTGATGTGCTG+CAGCACATCTAGCACGTCG (((((((((.(((((((((+))))))))).))))))))) | 58.6 °C
CGACGTGCTTGATGTGCTG+CAGCACATGAGGCACGTCG ((((((((.(.((((((((+)))))))).).)))))))) | 51.6 °C
CGACGTGCTTGATGTGCTG+CAGCACATGATGCACGTCG ((((((((.(.((((((((+)))))))).).)))))))) | 51.6 °C
CGACGTGCTTGATGTGCTG+CAGCACATGCAGCACGTCG (((((((((..((((((((+))))))))..))))))))) | 51.8 °C
CGACGTGCTTGATGTGCTG+CAGCACATGCTGCACGTCG ((((((((...((((((((+))))))))...)))))))) | 48.1 °C
CGACGTGCTTGATGTGCTG+CAGCACATGGAGCACGTCG (((((((((..((((((((+))))))))..))))))))) | 54 °C
CGACGTGCTTGATGTGCTG+CAGCACATGGCGCACGTCG ((((((((...((((((((+))))))))...)))))))) | 47.2 °C
CGACGTGCTTGATGTGCTG+CAGCACATTAAGCACGTCG ((((((((((.((((((((+)))))))).)))))))))) | 57.2 °C
CGACGTGCTTGATGTGCTG+CAGCACATTACGCACGTCG ((((((((.(.((((((((+)))))))).).)))))))) | 50.1 °C
CGACGTGCTTGATGTGCTG+CAGCACATTCCGCACGTCG ((((((((...((((((((+))))))))...)))))))) | 48.5 °C
CGACGTGCTTGATGTGCTG+CAGCACATTCGGCACGTCG ((((((((...((((((((+))))))))...)))))))) | 50.1 °C
CGACGTGCTTGATGTGCTG+CAGCACATTGCGCACGTCG ((((((((...((((((((+))))))))...)))))))) | 48.1 °C
CGACGTGCTTGATGTGCTG+CAGCACATTGTGCACGTCG ((((((((...((((((((+))))))))...)))))))) | 47.2 °C
CGACGTGCTTTATGTGCTG+CAGCACATACCGCACGTCG ((((((((..(((((((((+)))))))))..)))))))) | 48.3 °C
CGACGTGCTTTATGTGCTG+CAGCACATAGAGCACGTCG (((((((((.(((((((((+))))))))).))))))))) | 55.2 °C
CGACGTGCTTTATGTGCTG+CAGCACATAGCGCACGTCG ((((((((..(((((((((+)))))))))..)))))))) | 47.9 °C
